Measurements: publication PMC4342030 (Molecular Biology of the Cell, 2015)

Tests used:
[1] = molecular target: T1, purified APPL2 after cleavage of GST (mouse, UniProt Q8K3G9 1-662); experiment: pull-down
T1 sequence (looked up): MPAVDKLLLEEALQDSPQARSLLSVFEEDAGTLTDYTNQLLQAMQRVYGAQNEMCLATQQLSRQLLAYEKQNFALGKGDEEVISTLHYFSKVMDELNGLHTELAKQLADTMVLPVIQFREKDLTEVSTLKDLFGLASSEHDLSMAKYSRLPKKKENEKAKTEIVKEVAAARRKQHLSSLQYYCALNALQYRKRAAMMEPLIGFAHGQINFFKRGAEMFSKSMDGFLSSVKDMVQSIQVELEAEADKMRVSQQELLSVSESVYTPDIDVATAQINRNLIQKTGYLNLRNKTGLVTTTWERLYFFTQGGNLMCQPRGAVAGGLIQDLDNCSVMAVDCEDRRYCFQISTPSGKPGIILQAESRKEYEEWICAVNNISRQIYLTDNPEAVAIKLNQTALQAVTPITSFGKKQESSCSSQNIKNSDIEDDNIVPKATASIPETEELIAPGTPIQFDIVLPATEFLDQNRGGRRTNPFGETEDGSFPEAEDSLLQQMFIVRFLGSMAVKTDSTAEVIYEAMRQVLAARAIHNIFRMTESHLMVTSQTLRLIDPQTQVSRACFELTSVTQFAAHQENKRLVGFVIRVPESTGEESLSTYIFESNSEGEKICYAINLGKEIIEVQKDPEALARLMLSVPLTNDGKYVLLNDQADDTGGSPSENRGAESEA

GFP-Rab31 = molecular target: T2, GFP-Rab31 (mouse, UniProt Q921E2 1-195); experiment: co-IP
T2 sequence (looked up): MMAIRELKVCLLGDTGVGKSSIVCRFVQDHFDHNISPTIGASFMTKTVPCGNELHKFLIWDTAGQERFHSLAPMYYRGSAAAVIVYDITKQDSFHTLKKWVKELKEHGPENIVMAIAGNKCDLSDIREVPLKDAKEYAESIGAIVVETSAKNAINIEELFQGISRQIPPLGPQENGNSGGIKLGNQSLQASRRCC

B1: GST-Rab31 (natural protein, mouse, UniProt Q921E2 1-195, looked up)
chain: T2 sequence (looked up)
Does B1 bind [1]?
Result: binds

B2: APPL2 (adaptor protein, phosphotyrosine interaction, PH domain, and leucine zipper–containing 2) (natural protein, mouse (endogenous in RAW 264.7), UniProt Q8K3G9 1-662, looked up)
chain: T1 sequence (looked up)
B2 was tested. Which “fold preference over GFP-Rab5a” value (GFP-Rab31) did it give?
The value was 3 fold.
